Test results taken from paper PMC6056499, “A systematic dissection of sequence elements determining β-Klotho and FGF interaction and signaling” (Scientific Reports, 2018).

target: human β-Klotho extracellular domain (aa1–992) fused with a 6 × His tag at the C-terminus (UniProt Q86Z14); experiment: solid-phase binding assay; details: parent: est. 1.0; read off a plot
Sequence (Q86Z14 53-992): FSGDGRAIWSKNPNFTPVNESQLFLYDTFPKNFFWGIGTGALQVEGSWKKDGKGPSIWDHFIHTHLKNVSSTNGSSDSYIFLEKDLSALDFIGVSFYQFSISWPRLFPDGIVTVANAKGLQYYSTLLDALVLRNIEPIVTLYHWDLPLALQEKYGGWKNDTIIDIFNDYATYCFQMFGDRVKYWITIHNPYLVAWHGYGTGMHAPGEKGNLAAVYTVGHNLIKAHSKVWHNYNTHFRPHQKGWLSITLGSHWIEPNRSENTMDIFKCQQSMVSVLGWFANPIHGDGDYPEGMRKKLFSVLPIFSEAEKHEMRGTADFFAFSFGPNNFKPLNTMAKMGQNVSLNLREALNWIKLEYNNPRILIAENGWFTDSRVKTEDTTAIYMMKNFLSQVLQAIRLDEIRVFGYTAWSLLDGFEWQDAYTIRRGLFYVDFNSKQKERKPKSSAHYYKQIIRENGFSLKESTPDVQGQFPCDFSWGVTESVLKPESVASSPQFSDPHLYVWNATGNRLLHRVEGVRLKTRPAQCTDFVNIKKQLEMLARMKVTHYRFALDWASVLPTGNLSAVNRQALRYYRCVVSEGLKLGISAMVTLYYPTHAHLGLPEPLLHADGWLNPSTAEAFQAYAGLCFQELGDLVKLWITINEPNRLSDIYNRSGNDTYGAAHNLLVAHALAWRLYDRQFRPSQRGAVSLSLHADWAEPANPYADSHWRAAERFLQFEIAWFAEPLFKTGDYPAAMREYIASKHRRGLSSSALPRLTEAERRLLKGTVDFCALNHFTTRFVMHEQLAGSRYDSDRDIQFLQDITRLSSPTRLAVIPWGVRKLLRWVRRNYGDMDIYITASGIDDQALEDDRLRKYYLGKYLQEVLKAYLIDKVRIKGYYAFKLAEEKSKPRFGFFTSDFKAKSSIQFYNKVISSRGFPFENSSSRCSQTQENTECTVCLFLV

Chain of mature human FGF21 polypeptide fused with the human Fc fragment at the N-terminus (Fc-FGF21), wild type (from UniProt Q9NSA1) 190S-R (Q9NSA1 29-209, change not shown): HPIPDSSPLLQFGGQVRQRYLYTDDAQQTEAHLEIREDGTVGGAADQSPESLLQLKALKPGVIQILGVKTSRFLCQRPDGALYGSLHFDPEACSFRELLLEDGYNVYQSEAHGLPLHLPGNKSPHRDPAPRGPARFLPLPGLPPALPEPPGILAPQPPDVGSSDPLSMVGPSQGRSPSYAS
Chain of mature human FGF21 polypeptide fused with the human Fc fragment at the N-terminus (Fc-FGF21), wild type (from UniProt Q9NSA1) 197V-A (Q9NSA1 29-209, change not shown): as above
Chain of mature human FGF21 polypeptide fused with the human Fc fragment at the N-terminus (Fc-FGF21), wild type (from UniProt Q9NSA1) 165L-A (Q9NSA1 29-209, change not shown): as above
Chain of mature human FGF21 polypeptide fused with the human Fc fragment at the N-terminus (Fc-FGF21), wild type (from UniProt Q9NSA1) 195S-A (Q9NSA1 29-209, change not shown): as above
Chain of mature human FGF21 polypeptide fused with the human Fc fragment at the N-terminus (Fc-FGF21), wild type (from UniProt Q9NSA1) 173A-R (Q9NSA1 29-209, change not shown): as above
Chain of mature human FGF21 polypeptide fused with the human Fc fragment at the N-terminus (Fc-FGF21), wild type (from UniProt Q9NSA1) 167L-R (Q9NSA1 29-209, change not shown): as above
Chain of mature human FGF21 polypeptide fused with the human Fc fragment at the N-terminus (Fc-FGF21), wild type (from UniProt Q9NSA1) 174P-R (Q9NSA1 29-209, change not shown): as above
Chain of mature human FGF21 polypeptide fused with the human Fc fragment at the N-terminus (Fc-FGF21), wild type (from UniProt Q9NSA1) 201Q-R (Q9NSA1 29-209, change not shown): as above
Chain of mature human FGF21 polypeptide fused with the human Fc fragment at the N-terminus (Fc-FGF21), wild type (from UniProt Q9NSA1) 189G-A (Q9NSA1 29-209, change not shown): as above
Chain of mature human FGF21 polypeptide fused with the human Fc fragment at the N-terminus (Fc-FGF21), wild type (from UniProt Q9NSA1) 170L-A (Q9NSA1 29-209, change not shown): as above
Chain of mature human FGF21 polypeptide fused with the human Fc fragment at the N-terminus (Fc-FGF21), wild type (from UniProt Q9NSA1) 169G-R (Q9NSA1 29-209, change not shown): as above
Chain of mature human FGF21 polypeptide fused with the human Fc fragment at the N-terminus (Fc-FGF21), wild type (from UniProt Q9NSA1) 183P-R (Q9NSA1 29-209, change not shown): as above
Chain of mature human FGF21 polypeptide fused with the human Fc fragment at the N-terminus (Fc-FGF21), wild type (from UniProt Q9NSA1) 184Q-R (Q9NSA1 29-209, change not shown): as above
Chain of mature human FGF21 polypeptide fused with the human Fc fragment at the N-terminus (Fc-FGF21), wild type (from UniProt Q9NSA1) 172P-R (Q9NSA1 29-209, change not shown): as above
Chain of mature human FGF21 polypeptide fused with the human Fc fragment at the N-terminus (Fc-FGF21), wild type (from UniProt Q9NSA1) 187D-R (Q9NSA1 29-209, change not shown): as above
Chain of mature human FGF21 polypeptide fused with the human Fc fragment at the N-terminus (Fc-FGF21), wild type (from UniProt Q9NSA1) 182A-R (Q9NSA1 29-209, change not shown): as above
Chain of mature human FGF21 polypeptide fused with the human Fc fragment at the N-terminus (Fc-FGF21), wild type (from UniProt Q9NSA1) 168P-A (Q9NSA1 29-209, change not shown): as above
Chain of mature human FGF21 polypeptide fused with the human Fc fragment at the N-terminus (Fc-FGF21), wild type (from UniProt Q9NSA1) 169G-A (Q9NSA1 29-209, change not shown): as above
Chain of mature human FGF21 polypeptide fused with the human Fc fragment at the N-terminus (Fc-FGF21), wild type (from UniProt Q9NSA1) 199P-A (Q9NSA1 29-209, change not shown): as above
Chain of mature human FGF21 polypeptide fused with the human Fc fragment at the N-terminus (Fc-FGF21), wild type (from UniProt Q9NSA1) 183P-A (Q9NSA1 29-209, change not shown): as above

Point of comparison: “mature human FGF21 polypeptide fused with the human Fc fragment at the N-terminus (Fc-FGF21), wild type (from UniProt Q9NSA1) 199P-R”, ratio to parent 1.2. Against it:
- mature human FGF21 polypeptide fused with the human Fc fragment at the N-terminus (Fc-FGF21), wild type (from UniProt Q9NSA1) 170L-R — lower, 1
- mature human FGF21 polypeptide fused with the human Fc fragment at the N-terminus (Fc-FGF21), wild type (from UniProt Q9NSA1) 198G-R — lower, 0.5
- mature human FGF21 polypeptide fused with the human Fc fragment at the N-terminus (Fc-FGF21), wild type (from UniProt Q9NSA1) 181L-A — lower, 0.5
- mature human FGF21 polypeptide fused with the human Fc fragment at the N-terminus (Fc-FGF21), wild type (from UniProt Q9NSA1) 164F-A — lower, 0.8
- mature human FGF21 polypeptide fused with the human Fc fragment at the N-terminus (Fc-FGF21), wild type (from UniProt Q9NSA1) 169G-A — lower, 0.9
- mature human FGF21 polypeptide fused with the human Fc fragment at the N-terminus (Fc-FGF21), wild type (from UniProt Q9NSA1) 166P-R — higher, 2.6
- mature human FGF21 polypeptide fused with the human Fc fragment at the N-terminus (Fc-FGF21), wild type (from UniProt Q9NSA1) 197V-A — higher, 90
- mature human FGF21 polypeptide fused with the human Fc fragment at the N-terminus (Fc-FGF21), wild type (from UniProt Q9NSA1) 170L-A — lower, 1
- mature human FGF21 polypeptide fused with the human Fc fragment at the N-terminus (Fc-FGF21), wild type (from UniProt Q9NSA1) 169G-R — higher, 2.2
- mature human FGF21 polypeptide fused with the human Fc fragment at the N-terminus (Fc-FGF21), wild type (from UniProt Q9NSA1) 174P-R — higher, 1.3
- mature human FGF21 polypeptide fused with the human Fc fragment at the N-terminus (Fc-FGF21), wild type (from UniProt Q9NSA1) 173A-R — lower, 0.6
- mature human FGF21 polypeptide fused with the human Fc fragment at the N-terminus (Fc-FGF21), wild type (from UniProt Q9NSA1) 200S-A — lower, 0.8
- mature human FGF21 polypeptide fused with the human Fc fragment at the N-terminus (Fc-FGF21), wild type (from UniProt Q9NSA1) 190S-R — higher, 6.5
- mature human FGF21 polypeptide fused with the human Fc fragment at the N-terminus (Fc-FGF21), wild type (from UniProt Q9NSA1) 175P-R — higher, 1.4
- mature human FGF21 polypeptide fused with the human Fc fragment at the N-terminus (Fc-FGF21), wild type (from UniProt Q9NSA1) 195S-A — higher, 3
- mature human FGF21 polypeptide fused with the human Fc fragment at the N-terminus (Fc-FGF21), wild type (from UniProt Q9NSA1) 172P-R — higher, 1.5
- mature human FGF21 polypeptide fused with the human Fc fragment at the N-terminus (Fc-FGF21), wild type (from UniProt Q9NSA1) 209S-A — lower, 0.5
- mature human FGF21 polypeptide fused with the human Fc fragment at the N-terminus (Fc-FGF21), wild type (from UniProt Q9NSA1) 168P-R — the same, 1.2
- mature human FGF21 polypeptide fused with the human Fc fragment at the N-terminus (Fc-FGF21), wild type (from UniProt Q9NSA1) 182A-R — higher, 1.4
- mature human FGF21 polypeptide fused with the human Fc fragment at the N-terminus (Fc-FGF21), wild type (from UniProt Q9NSA1) 179G-R — lower, 1
- mature human FGF21 polypeptide fused with the human Fc fragment at the N-terminus (Fc-FGF21), wild type (from UniProt Q9NSA1) 187D-R — higher, 6
- mature human FGF21 polypeptide fused with the human Fc fragment at the N-terminus (Fc-FGF21), wild type (from UniProt Q9NSA1) 183P-A — lower, 0.8
- mature human FGF21 polypeptide fused with the human Fc fragment at the N-terminus (Fc-FGF21), wild type (from UniProt Q9NSA1) 183P-R — lower, 1
- mature human FGF21 polypeptide fused with the human Fc fragment at the N-terminus (Fc-FGF21), wild type (from UniProt Q9NSA1) 176E-A — lower, 0.5
- mature human FGF21 polypeptide fused with the human Fc fragment at the N-terminus (Fc-FGF21), wild type (from UniProt Q9NSA1) 174P-A — lower, 0.6
- mature human FGF21 polypeptide fused with the human Fc fragment at the N-terminus (Fc-FGF21), wild type (from UniProt Q9NSA1) 195S-R — lower, 0.5
- mature human FGF21 polypeptide fused with the human Fc fragment at the N-terminus (Fc-FGF21), wild type (from UniProt Q9NSA1) 184Q-R — higher, 1.8
- mature human FGF21 polypeptide fused with the human Fc fragment at the N-terminus (Fc-FGF21), wild type (from UniProt Q9NSA1) 165L-A — lower, 1
- mature human FGF21 polypeptide fused with the human Fc fragment at the N-terminus (Fc-FGF21), wild type (from UniProt Q9NSA1) 180I-R — higher, 2.3
- mature human FGF21 polypeptide fused with the human Fc fragment at the N-terminus (Fc-FGF21), wild type (from UniProt Q9NSA1) 177P-A — lower, 1
- mature human FGF21 polypeptide fused with the human Fc fragment at the N-terminus (Fc-FGF21), wild type (from UniProt Q9NSA1) 186P-A — higher, 12
- mature human FGF21 polypeptide fused with the human Fc fragment at the N-terminus (Fc-FGF21), wild type (from UniProt Q9NSA1) 167L-R — lower, 1
- mature human FGF21 polypeptide fused with the human Fc fragment at the N-terminus (Fc-FGF21), wild type (from UniProt Q9NSA1) 188V-R — higher, 950
- mature human FGF21 polypeptide fused with the human Fc fragment at the N-terminus (Fc-FGF21), wild type (from UniProt Q9NSA1) 168P-A — lower, 0.5
- mature human FGF21 polypeptide fused with the human Fc fragment at the N-terminus (Fc-FGF21), wild type (from UniProt Q9NSA1) 175P-A — lower, 0.5
- mature human FGF21 polypeptide fused with the human Fc fragment at the N-terminus (Fc-FGF21), wild type (from UniProt Q9NSA1) 189G-A — lower, 0.8
- mature human FGF21 polypeptide fused with the human Fc fragment at the N-terminus (Fc-FGF21), wild type (from UniProt Q9NSA1) 185P-R — higher, 1.6
- mature human FGF21 polypeptide fused with the human Fc fragment at the N-terminus (Fc-FGF21), wild type (from UniProt Q9NSA1) 202G-R — higher, 4.8
- mature human FGF21 polypeptide fused with the human Fc fragment at the N-terminus (Fc-FGF21), wild type (from UniProt Q9NSA1) 177P-R — the same, 1.2
- mature human FGF21 polypeptide fused with the human Fc fragment at the N-terminus (Fc-FGF21), wild type (from UniProt Q9NSA1) 199P-A — lower, 1
- mature human FGF21 polypeptide fused with the human Fc fragment at the N-terminus (Fc-FGF21), wild type (from UniProt Q9NSA1) 201Q-R — lower, 1
- mature human FGF21 polypeptide fused with the human Fc fragment at the N-terminus (Fc-FGF21), wild type (from UniProt Q9NSA1) 171P-R — the same, 1.2
- mature human FGF21 polypeptide fused with the human Fc fragment at the N-terminus (Fc-FGF21), wild type (from UniProt Q9NSA1) 176E-R — higher, 1.6
- mature human FGF21 polypeptide fused with the human Fc fragment at the N-terminus (Fc-FGF21), wild type (from UniProt Q9NSA1) 185P-A — higher, 1.3
